Measured values: patent publication US20140072613A1 (published 2014)
Numbering of substitutions follows the chain as printed.

T1: Ret(V804M)(h) (human, UniProt P07949 658-1114, limits assumed)
T1 sequence (looked up): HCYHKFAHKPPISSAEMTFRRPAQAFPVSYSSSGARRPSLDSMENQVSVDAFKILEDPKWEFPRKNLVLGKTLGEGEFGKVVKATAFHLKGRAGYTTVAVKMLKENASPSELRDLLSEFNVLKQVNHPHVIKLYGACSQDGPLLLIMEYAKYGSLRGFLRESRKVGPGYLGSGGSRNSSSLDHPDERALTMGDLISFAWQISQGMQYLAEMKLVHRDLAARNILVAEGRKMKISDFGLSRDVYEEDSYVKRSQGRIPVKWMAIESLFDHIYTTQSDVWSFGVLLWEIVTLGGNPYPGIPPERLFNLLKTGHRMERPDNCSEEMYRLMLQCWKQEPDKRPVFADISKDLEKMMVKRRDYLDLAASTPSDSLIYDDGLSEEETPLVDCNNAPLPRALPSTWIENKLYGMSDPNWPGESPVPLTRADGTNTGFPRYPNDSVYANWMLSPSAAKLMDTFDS

T2: NLK(h) (human, UniProt Q9UBE8 1-527, limits assumed)
T2 sequence (looked up): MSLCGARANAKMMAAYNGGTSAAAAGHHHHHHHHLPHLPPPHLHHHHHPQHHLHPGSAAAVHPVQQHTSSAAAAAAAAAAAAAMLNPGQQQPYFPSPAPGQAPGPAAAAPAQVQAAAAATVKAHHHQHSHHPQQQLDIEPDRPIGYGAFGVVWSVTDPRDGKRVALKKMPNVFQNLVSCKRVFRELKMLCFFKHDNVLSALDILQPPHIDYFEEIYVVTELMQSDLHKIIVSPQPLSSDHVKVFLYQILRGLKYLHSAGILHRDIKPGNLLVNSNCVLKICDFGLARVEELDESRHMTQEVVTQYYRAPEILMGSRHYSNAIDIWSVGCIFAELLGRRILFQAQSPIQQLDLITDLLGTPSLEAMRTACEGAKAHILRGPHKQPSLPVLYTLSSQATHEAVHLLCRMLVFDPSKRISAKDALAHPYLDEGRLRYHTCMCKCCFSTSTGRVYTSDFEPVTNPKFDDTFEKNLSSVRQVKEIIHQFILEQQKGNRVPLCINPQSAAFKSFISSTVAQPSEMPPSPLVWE

T3: Ret(V804L)(h) (human, UniProt P07949 658-1114, limits assumed)
T3 sequence (looked up): T1 sequence (looked up) with M147L

T4: DYRK2(h) (human, UniProt Q92630 1-601, limits assumed)
T4 sequence (looked up): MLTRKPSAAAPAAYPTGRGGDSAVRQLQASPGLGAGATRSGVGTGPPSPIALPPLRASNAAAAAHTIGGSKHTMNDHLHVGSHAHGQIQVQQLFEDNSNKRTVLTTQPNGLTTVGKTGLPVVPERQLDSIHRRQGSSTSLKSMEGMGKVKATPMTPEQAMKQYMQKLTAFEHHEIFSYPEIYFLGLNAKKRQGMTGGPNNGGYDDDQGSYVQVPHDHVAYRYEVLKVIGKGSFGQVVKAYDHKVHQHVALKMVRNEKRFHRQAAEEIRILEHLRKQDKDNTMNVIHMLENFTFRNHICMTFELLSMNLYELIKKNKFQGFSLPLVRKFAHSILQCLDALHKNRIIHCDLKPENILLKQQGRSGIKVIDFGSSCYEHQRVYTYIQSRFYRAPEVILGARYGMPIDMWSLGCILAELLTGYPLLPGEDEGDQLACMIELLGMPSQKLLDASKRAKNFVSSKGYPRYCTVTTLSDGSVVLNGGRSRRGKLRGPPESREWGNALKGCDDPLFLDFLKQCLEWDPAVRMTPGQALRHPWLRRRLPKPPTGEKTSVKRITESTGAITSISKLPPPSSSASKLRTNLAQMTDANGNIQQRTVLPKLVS


Legend:
Test in all cases: cell-based or functional assay
Ret(V804M)(h) = target: T1, Ret(V804M)(h)
VRK2(h) = VRK2(h) (human, UniProt Q86Y07 1-508, limits assumed)
Chain of VRK2(h) (Q86Y07 whole entry): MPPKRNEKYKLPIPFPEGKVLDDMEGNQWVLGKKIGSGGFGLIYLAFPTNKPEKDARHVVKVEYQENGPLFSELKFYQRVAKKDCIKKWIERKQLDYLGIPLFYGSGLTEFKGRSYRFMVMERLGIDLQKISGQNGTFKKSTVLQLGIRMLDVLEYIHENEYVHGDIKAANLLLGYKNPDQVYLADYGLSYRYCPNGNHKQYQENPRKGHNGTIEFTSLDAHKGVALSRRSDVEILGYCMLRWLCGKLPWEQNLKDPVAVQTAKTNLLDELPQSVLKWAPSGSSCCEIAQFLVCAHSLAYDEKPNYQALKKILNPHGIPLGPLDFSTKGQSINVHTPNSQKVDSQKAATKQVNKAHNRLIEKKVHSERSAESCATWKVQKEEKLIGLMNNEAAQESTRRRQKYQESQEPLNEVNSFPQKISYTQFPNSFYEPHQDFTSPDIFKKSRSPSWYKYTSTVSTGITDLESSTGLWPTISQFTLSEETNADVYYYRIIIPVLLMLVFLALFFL

ErbB4(h) = ErbB4(h) (human, UniProt Q15303 706-991, limits assumed)
Chain of ErbB4(h) (Q15303 706-991 limits assumed): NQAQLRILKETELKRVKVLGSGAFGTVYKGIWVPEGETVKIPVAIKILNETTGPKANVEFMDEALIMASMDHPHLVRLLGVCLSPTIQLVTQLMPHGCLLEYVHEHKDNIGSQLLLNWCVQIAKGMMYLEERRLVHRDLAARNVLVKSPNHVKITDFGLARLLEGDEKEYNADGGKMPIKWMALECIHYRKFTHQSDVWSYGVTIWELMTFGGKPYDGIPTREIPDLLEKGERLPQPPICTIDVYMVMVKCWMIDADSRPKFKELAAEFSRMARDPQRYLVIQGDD

ASK1(h) = ASK1(h) (human, UniProt Q99683 649-946, limits assumed)
Chain of ASK1(h) (Q99683 649-946 limits assumed): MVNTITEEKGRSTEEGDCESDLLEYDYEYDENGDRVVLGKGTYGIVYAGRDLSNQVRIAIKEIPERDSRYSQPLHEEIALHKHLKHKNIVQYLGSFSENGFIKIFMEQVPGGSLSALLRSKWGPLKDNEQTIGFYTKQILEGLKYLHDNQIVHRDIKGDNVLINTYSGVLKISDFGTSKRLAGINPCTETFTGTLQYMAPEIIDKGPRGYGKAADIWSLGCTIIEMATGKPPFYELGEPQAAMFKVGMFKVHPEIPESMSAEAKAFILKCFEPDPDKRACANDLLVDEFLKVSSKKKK

Abl(h) = Abl(h) (human, UniProt P00519 27-1130, limits assumed)
Chain of Abl(h) (P00519 27-1130 limits assumed): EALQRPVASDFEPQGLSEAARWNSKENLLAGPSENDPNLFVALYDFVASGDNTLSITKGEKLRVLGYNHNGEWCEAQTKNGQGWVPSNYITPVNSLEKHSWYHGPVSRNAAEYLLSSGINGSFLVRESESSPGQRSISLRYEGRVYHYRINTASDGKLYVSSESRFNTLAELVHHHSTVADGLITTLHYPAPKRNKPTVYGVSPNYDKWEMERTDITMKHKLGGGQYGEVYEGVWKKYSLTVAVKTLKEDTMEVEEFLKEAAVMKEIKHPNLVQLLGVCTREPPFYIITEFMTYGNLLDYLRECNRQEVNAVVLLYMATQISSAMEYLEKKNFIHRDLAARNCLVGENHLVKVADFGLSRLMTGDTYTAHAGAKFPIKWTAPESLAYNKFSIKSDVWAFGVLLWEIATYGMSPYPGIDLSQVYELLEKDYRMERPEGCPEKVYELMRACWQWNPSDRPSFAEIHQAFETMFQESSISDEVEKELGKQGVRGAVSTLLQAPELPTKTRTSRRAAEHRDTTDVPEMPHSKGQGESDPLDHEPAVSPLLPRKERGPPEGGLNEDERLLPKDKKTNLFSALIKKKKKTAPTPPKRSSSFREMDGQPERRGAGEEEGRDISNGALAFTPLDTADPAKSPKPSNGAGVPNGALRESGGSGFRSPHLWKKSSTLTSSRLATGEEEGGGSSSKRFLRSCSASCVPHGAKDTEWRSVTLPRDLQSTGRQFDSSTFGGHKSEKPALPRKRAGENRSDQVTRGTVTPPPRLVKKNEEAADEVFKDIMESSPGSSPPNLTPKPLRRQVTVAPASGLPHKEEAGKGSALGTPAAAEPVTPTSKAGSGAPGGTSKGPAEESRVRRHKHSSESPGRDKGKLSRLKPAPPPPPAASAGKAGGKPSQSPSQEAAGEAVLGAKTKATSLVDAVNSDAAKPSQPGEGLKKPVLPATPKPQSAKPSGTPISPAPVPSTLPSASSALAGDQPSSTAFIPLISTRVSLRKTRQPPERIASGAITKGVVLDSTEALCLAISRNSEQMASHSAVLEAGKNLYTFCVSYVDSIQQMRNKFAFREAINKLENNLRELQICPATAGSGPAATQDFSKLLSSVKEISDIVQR

CaMKI(h) = CaMKI(h) (human, UniProt Q14012 1-370)
Chain of CaMKI(h) (Q14012 whole entry): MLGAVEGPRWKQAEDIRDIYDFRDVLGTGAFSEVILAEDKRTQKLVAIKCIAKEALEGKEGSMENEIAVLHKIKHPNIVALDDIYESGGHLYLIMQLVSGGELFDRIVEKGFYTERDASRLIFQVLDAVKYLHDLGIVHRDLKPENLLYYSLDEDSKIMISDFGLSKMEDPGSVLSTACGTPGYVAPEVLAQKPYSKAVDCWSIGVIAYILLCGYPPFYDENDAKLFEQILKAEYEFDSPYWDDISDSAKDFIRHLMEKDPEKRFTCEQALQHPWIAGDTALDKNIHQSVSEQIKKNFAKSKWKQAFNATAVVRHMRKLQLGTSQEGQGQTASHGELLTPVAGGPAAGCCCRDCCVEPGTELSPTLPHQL

NLK(h) = target: T2, NLK(h)
Ret(V804L)(h) = target: T3, Ret(V804L)(h)
FGFR3(h) = FGFR3(h) (human, UniProt P22607 397-806)
Chain of FGFR3(h) (P22607 397-806 limits assumed): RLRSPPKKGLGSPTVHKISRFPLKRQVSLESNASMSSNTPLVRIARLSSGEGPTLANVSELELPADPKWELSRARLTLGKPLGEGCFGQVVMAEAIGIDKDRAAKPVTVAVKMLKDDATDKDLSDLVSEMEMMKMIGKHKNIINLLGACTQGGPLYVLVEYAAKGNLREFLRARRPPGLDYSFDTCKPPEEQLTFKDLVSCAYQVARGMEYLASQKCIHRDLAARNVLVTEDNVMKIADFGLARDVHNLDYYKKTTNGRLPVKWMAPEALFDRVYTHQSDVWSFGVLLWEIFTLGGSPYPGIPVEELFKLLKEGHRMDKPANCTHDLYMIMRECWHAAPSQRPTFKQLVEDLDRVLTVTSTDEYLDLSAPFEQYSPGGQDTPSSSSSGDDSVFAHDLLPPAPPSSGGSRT

DYRK2(h) = target: T4, DYRK2(h)
BRK(h) = BRK(h) (human, UniProt Q13882 1-451, limits assumed)
IR(h) = IR(h) (human, UniProt P06213 1005-1310, limits assumed)
Chain of IR(h) (P06213 1005-1310 limits assumed): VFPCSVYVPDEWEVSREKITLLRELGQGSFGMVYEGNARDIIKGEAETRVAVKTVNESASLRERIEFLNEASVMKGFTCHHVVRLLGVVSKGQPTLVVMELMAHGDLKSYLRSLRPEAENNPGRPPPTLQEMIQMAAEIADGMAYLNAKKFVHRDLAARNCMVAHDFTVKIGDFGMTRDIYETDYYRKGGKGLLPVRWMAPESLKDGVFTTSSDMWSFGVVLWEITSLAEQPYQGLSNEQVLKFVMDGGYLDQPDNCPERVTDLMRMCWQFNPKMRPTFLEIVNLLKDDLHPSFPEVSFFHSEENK

CaMKIIβ(h) = CaMKIIβ(h) (human, UniProt Q13554 1-666)
Chain of CaMKIIβ(h) (Q13554 whole entry): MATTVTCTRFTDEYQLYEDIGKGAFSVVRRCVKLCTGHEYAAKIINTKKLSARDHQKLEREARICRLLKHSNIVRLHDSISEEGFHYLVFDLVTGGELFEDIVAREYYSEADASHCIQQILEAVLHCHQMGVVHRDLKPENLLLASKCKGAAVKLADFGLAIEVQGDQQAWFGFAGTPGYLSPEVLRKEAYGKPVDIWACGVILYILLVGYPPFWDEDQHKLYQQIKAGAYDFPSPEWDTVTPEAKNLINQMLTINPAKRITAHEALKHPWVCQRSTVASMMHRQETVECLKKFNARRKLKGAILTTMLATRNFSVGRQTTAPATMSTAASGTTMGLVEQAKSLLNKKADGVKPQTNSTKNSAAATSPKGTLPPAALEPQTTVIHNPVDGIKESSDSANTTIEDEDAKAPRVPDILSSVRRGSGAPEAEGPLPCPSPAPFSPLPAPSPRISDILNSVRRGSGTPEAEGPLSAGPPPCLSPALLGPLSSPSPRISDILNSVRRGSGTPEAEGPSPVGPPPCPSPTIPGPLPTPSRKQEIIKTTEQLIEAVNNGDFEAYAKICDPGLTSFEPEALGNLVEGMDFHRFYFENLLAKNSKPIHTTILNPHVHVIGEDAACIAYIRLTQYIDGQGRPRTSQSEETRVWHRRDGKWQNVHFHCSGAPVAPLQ

Row | Binder | % activity, 100 µM (Ret(V804M)(h)) [%] | % activity, 100 µM (VRK2(h)) [%] | % activity, 100 µM (ErbB4(h)) [%] | % activity, 100 µM (ASK1(h)) [%] | % activity, 100 µM (Abl(h)) [%] | % activity, 100 µM (CaMKI(h)) [%] | % activity, 100 µM (NLK(h)) [%] | % activity, 100 µM (Ret(V804L)(h)) [%] | % activity, 100 µM (FGFR3(h)) [%] | % activity, 100 µM (DYRK2(h)) [%] | % activity, 100 µM (BRK(h)) [%] | % activity, 100 µM (IR(h)) [%] | % activity, 100 µM (CaMKIIβ(h)) [%]
1 | FAKLAARLYRKALARQLGVAA [MMI-0300] | 95 | 161 | 40 | 80 | 69 | 1 | 87 | 79 | 102 | 155 | 35 | 96 | 2
2 | KAFAKLAARLYRKALARQLGVAA [MMI-0400] | 87 | 185 | 0 | 69 | 84 | 0 | 90 | 73 | 0 | 195 | 18 | 85 | 11
